Test results taken from paper PMC4907068, “Phosphatase ABI1 and okadaic acid-sensitive phosphoprotein phosphatases inhibit salt stress-activated SnRK2.4 kinase” (BMC Plant Biology, 2016).

Target: T1, GST-fused ABI1 (Arabidopsis thaliana, UniProt P49597 1-434)
T1 construct: ABI1, PP2C clade A phosphatase, Arabidopsis thaliana, TAIR At4g26080; also called GST-ABI1; recombinant ABI1; not shown: GST, N-terminal, kept
T1 sequence (looked up): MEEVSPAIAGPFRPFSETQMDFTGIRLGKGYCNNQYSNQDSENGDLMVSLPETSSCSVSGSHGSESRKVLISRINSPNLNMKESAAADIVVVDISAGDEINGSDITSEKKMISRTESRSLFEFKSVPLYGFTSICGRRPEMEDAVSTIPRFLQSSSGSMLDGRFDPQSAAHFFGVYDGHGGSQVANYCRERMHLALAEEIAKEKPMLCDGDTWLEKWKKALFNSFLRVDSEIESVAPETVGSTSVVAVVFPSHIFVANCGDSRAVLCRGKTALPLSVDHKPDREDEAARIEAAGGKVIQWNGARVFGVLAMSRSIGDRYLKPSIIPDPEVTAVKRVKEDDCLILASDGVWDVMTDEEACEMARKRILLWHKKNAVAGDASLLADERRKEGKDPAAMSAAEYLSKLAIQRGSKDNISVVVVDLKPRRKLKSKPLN
Experiment: pull-down; GST-ABI1 or GST bound to Glutathione-Sepharose 4B beads, incubated with 10 ug recombinant SnRK2.4; 50 mM Tris-HCl pH 8.0, 50 mM NaCl, 0.01 % Triton X-100, 40 mM DTT; 45 min at RT, 5 washes; immunoblot with anti-SnRK2.4/SnRK2.10
Details: both partners purified

binding result: binds
B1: recombinant SnRK2.4 (enzyme, Arabidopsis thaliana, UniProt P43291 1-363, looked up)
chain: MDKYELVKDIGAGNFGVARLMKVKNSKELVAMKYIERGPKIDENVAREIINHRSLRHPNIIRFKEVVLTPTHLAIAMEYAAGGELFERICSAGRFSEDEARYFFQQLISGVSYCHAMQICHRDLKLENTLLDGSPAPRLKICDFGYSKSSLLHSRPKSTVGTPAYIAPEVLSRREYDGKMADVWSCGVTLYVMLVGAYPFEDQEDPKNFRKTIQKIMAVQYKIPDYVHISQDCKNLLSRIFVANSLKRITIAEIKKHSWFLKNLPRELTETAQAAYFKKENPTFSLQTVEEIMKIVADAKTPPPVSRSIGGFGWGGNGDADGKEEDAEDVEEEEEEVEEEEDDEDEYDKTVKEVHASGEVRIS
notes: SnRK2.4, SNF1-related protein kinase 2 of group 1, Arabidopsis thaliana, TAIR At1g10940
